Experiments:
[1] = target: T1, human GPCR135 (human, UniProt Q9NSD7 1-469); assay: radioligand competition, 50 pM 125I-R3/I5 tracer, COS-7 cells transiently expressing human GPCR135
T1 construct: whole, on cells; also called SALPR
T1 sequence (looked up): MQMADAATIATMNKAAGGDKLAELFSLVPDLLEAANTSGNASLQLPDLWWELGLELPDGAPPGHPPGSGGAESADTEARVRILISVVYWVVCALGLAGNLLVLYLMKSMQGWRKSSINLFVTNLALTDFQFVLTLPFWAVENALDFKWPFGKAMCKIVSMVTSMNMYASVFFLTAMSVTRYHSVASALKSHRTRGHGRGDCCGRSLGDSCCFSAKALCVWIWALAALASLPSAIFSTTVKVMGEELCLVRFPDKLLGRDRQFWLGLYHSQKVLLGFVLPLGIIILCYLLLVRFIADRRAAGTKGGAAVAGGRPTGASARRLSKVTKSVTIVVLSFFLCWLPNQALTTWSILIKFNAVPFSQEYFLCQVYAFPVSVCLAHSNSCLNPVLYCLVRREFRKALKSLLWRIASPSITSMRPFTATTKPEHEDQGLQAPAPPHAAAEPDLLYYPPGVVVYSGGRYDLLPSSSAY
Excerpt: (§1) COS-7 cells in 24-well tissue culture plates transiently expressing GPCR135, GPCR142 or LGR7 were used in radioligand binding assays as described by Liu et al., 2005a, J. Biol. Chem., 280:292-300. ¹²⁵I-Relaxin-3/INSL5 (¹²⁵I-R3/I5), a radiolabeled chimeric peptide with the human relaxin-3 B-chain and the human INSL5 A-chain (Liu et al., 2005b), was used at a final concentration of 50 pM as the tracer to characterize the binding properties of all truncated relaxin-3 peptides for GPCR135 and GPCR142. ¹²⁵I-relaxin-2 (PerkinElmer Biosciences, Boston) was used at a final concentration of 50 pM to characterize the binding properties of the truncated peptides for the relaxin receptor (LGR7). The results were analyzed by GraphPad Prism 4.0 software (Graphpad, San Diego). The IC₅₀ values, which are the ligand concentrations that inhibited 50% of the maximum specific binding, were then calculated.

[2] = target: T2, human GPCR142 (human, UniProt Q8TDU9 1-374); assay: radioligand competition, 50 pM 125I-R3/I5 tracer, COS-7 cells transiently expressing human GPCR142
T2 construct: whole, on cells
T2 sequence (Q8TDU9 whole entry): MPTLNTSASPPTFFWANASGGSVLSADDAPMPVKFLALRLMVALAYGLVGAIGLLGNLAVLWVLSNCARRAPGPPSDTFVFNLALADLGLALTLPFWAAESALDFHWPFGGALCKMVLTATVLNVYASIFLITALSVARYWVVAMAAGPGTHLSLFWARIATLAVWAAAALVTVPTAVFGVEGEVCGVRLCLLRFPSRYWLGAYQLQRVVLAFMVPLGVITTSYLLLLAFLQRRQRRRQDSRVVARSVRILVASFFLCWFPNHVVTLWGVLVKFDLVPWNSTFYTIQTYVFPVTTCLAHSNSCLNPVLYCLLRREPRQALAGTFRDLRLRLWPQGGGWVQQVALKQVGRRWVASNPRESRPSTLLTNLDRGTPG
Excerpt: as §1

[3] = target: T3, human LGR7 (human, UniProt Q9HBX9 1-757); assay: radioligand competition, 50 pM 125I-relaxin-2 tracer, COS-7 cells transiently expressing human LGR7
T3 construct: whole, on cells; also called relaxin receptor
T3 sequence (looked up): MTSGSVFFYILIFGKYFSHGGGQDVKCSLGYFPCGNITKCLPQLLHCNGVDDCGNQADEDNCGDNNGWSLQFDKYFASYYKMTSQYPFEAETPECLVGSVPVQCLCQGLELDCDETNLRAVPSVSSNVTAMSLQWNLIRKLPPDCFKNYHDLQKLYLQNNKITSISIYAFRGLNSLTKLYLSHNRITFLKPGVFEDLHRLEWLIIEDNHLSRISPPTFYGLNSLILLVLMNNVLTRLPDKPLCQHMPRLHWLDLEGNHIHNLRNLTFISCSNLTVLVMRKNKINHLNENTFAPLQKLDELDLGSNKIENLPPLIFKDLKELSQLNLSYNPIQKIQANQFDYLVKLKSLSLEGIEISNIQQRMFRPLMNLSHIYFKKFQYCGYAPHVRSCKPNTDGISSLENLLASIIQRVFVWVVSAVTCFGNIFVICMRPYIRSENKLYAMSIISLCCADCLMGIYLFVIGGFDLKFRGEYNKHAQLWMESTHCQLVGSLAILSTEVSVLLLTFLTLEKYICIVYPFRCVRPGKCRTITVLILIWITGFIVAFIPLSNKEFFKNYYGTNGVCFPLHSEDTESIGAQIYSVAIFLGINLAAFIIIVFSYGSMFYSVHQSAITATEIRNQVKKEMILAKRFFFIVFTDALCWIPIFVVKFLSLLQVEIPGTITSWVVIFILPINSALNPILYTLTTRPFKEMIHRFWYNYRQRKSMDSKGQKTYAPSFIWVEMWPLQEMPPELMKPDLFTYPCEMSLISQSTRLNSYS
Excerpt: as §1

[4] = target: T3, human LGR7; assay: cell-based or functional assay
[5] = target: T4, rat GPCR135 (rat, UniProt Q5Y987 29-469); assay: autoradiography, displacement of 125I-R3/I5 from endogenous GPCR135 in rat brain sections
T4 sequence (Q5Y987 entry or part of it): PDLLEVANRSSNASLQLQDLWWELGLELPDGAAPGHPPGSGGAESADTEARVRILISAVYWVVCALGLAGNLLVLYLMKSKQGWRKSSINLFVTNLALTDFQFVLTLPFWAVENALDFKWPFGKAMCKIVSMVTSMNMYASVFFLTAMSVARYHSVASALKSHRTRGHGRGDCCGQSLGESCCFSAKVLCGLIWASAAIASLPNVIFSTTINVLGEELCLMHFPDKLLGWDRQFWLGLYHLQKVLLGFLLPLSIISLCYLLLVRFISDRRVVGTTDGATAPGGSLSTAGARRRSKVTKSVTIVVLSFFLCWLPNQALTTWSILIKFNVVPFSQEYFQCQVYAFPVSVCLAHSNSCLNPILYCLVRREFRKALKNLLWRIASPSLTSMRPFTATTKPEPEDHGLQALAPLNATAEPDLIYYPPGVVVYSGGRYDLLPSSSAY

[6] = target: T5, rat LGR7 (rat, UniProt Q6R6I6 1-758); assay: radioligand competition, 125I-relaxin-2 tracer, COS-7 cells transiently expressing rat LGR7
T5 construct: whole, on cells; also called recombinant rat LGR7
T5 sequence (looked up): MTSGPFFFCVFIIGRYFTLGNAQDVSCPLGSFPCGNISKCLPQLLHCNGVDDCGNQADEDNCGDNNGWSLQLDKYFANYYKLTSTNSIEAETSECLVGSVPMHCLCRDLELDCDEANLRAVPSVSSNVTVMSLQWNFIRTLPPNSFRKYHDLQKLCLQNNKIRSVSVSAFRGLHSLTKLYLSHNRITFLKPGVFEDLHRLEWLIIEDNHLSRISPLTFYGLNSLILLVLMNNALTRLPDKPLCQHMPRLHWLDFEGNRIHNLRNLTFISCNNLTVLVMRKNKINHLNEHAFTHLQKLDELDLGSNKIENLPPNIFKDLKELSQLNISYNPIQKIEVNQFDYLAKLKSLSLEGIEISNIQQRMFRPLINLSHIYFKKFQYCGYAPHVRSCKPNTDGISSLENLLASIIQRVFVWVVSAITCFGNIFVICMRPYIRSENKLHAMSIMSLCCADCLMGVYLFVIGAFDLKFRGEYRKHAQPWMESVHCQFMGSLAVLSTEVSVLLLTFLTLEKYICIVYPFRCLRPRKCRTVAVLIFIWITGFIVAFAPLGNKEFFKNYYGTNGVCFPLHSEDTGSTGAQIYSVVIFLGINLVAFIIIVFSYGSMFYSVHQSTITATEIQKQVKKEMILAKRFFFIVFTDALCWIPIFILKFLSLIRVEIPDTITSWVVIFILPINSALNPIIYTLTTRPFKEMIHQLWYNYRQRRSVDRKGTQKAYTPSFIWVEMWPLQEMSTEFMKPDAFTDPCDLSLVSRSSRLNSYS
Excerpt: FIG. 3 illustrates that R3(BΔ23-27)R/I5 is bound by recombinant rat GPCR135 with high affinity, but not by rat LGR7. COS-7 cells transiently expressing recombinant rat GPCR135 or LGR7 were used to characterize the binding affinity of rat GPCR135 (A) and LGR7 for (B) R3(BΔ23-27)R/I5. ¹²⁵I-R3/I5 was used as the tracer for GPCR135 and ¹²⁵I-relaxin-2 was used as the tracer for LGR7 binding. Various concentrations of R3(BΔ23-27)R/I5 were used as the competitor and unlabeled human relaxin-3 was used as the positive control in the binding assay.
as §1, with “The IC₅₀ values, which are the ligand concentrations that inhibited 50% of the maximum specific binding, were then calculated.” left out

[7] = target: T4, rat GPCR135; assay: radioligand competition, 125I-R3/I5 tracer, COS-7 cells transiently expressing recombinant rat GPCR135
[8] = target: T3, human LGR7; assay: radioligand competition, 50 pM 125I-relaxin-2 tracer, COS-7 cells transiently expressing human LGR7; NA = no affinity was observed in radioligand binding assay
Excerpt: as §1

B1: R3(BΔ23-27)R (peptide)
chain 1: RAAPYGVRLCGREFIRAVIFTCR
chain 2: DVLAGLSSSCCKWGCSKSEISSLC
notes: probably a misprint
Work on B1 yielded an IC50 [1] of 0.95 nM, an IC50 [2] of 3.91 nM and an IC50 [3] of roughly 200 nM.

B2: R3(BΔ24-27) (peptide)
chain 1: RAAPYGVRLCGREFIRAVIFTCG
chain 2: DVLAGLSSSCCKWGCSKSEISSLC
For B2, the “EC50, stimulation of β-gal expression in SK-N-MC/CRE-β-gal cells expressing human LGR7” value (from here on “EC50, stimulation of β-gal expression”) [4] was 4.3 nM, the IC50 [1] was 13.5 nM and the IC50 [2] was 18.9 nM. The IC50 [3] was 8.9 nM.

B3: R3(BΔ23-27)R/I5 (peptide)
chain 1: RAAPYGVRLCGREFIRAVIFTCR
chain 2: EDLQTLCCTDGCSMTDLSALC
modifications: N-terminal pyro-Glu ("<E")
notes: Chimeric two-chain peptide; also called R3(Δ23-27)R/I5; R3(ΔB23-27)R/I5
With B3 the IC50 [5] was 0.4 nM, the binding result [6] was “no binding” and the IC50 [7] was 0.25 nM. The IC50 [1] was 0.67 nM, the IC50 [2] was 2.29 nM and the binding result [8] was “no binding”.

B4: R3(BΔ26-27) (peptide)
chain 1: RAAPYGVRLCGREFIRAVIFTCGGS
chain 2: DVLAGLSSSCCKWGCSKSEISSLC
For B4, the “EC50, stimulation of β-gal expression” value [4] was 3.3 nM, the IC50 [1] was 11.5 nM and the IC50 [2] was 9.5 nM. For the same binder, the IC50 [3] was 6.3 nM.

B5: R3(BΔ25-27) (peptide)
chain 1: RAAPYGVRLCGREFIRAVIFTCGG
chain 2: DVLAGLSSSCCKWGCSKSEISSLC
For B5, the “EC50, stimulation of β-gal expression” value [4] was 4.1 nM, the IC50 [1] was 9.5 nM and the IC50 [2] was 11.9 nM. The IC50 [3] was 7.9 nM.

— patent publication US20100145007A1 (Janssen / Centocor, published 2010)
